Experimental data as given in patent publication US20080081903A1, “METHOD FOR SCREENING TRANSCRIPTIONAL COREGULATORY PROTEINS OF TRANSCRIPTION FACTORS, AND ANDROGEN RECEPTOR TRANSCRIPTIONAL COREGULATORY PROTEINS AS TARGETS FOR ANDROGEN RECEPTOR-DEPENDENT DISEASES” (NEW YORK UNIVERSITY, priority 2001, published 2008).

T1: androgen receptor N-terminus (AR18-500) (Rattus norvegicus, UniProt P15207)
T1 construct: receptor residues 18 through 500 (using the rat androgen receptor number scheme); expressed in transfected cells; host or cells: Saccharomyces cerevisiae EGY188
T1 sequence (P15207 18-500): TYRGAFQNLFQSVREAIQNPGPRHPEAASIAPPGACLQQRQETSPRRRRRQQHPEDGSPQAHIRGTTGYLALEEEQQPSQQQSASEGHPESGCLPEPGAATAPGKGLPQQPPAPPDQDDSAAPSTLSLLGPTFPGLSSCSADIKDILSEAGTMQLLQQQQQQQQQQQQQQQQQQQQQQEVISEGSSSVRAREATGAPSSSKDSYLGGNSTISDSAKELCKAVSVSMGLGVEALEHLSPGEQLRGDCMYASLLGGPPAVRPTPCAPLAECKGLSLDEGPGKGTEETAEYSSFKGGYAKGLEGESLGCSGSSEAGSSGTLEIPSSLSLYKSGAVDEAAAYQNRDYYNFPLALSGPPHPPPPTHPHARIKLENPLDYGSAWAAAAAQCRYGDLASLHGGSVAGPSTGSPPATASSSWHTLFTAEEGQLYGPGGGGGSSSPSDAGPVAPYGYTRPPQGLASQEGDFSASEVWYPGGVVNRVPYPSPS

T2: androgen receptor (AR) N-terminus (18-500) (Rattus norvegicus, UniProt P15207)
T2 construct: receptor residues 18 through 500 (using the rat androgen receptor number scheme); expressed in transfected cells; host or cells: Saccharomyces cerevisiae EGY188
T2 sequence (P15207 18-500): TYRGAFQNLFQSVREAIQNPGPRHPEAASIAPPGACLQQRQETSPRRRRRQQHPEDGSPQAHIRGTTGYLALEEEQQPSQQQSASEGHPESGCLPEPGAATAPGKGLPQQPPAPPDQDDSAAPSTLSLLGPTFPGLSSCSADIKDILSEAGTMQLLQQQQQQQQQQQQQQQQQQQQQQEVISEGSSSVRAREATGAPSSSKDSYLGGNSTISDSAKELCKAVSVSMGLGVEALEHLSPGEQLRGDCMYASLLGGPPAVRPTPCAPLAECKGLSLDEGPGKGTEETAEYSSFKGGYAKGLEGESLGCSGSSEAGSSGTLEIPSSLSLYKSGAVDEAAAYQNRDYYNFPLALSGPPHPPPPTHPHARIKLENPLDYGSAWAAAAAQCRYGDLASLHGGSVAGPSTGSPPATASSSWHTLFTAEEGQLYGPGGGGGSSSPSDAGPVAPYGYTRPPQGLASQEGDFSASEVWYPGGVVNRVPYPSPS

T3: androgen receptor ligand-binding domain (579-901) (Rattus norvegicus, UniProt P15207)
T3 construct: expressed in transfected cells; host or cells: yeast (modified two-hybrid assay)
T3 sequence (P15207 579-901): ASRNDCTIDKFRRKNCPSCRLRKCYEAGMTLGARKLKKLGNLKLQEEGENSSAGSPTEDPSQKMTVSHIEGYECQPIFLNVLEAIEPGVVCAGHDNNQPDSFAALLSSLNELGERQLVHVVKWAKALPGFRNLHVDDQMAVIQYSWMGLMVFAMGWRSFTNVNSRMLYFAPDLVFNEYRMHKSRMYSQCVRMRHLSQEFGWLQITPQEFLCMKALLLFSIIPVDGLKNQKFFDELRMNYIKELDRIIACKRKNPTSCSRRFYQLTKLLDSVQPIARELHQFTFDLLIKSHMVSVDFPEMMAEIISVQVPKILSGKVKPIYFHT


Tests used:
[1] = biological target: T1, androgen receptor N-terminus (AR18-500); experiment: Modified yeast two-hybrid, quantitative liquid beta-galactosidase assay; assay type: binding; conditions: LexA-ART fusions vs AR18-500; twelve hour incubation in galactose-containing media
Method: (§1) The modified yeast two hybrid assay is described in Hittelman et al., 1999. EGY188 was transformed by the lithium acetate method with (i) pJG4-5:AR18-500, (ii) pEG202:LNCaP cell cDNA library and (iii) pJK103, a β-galactosidase reporter gene with a single LexA operator. Potential interacting proteins were selected by plating the cDNA library expressing transformants onto galactose plates lacking leucine and containing X-gal.
Yeast were grown in selective liquid media containing 2% glucose for approximately 12 hours, pelleted, washed once with sterile H2O, normalized according to cell number and resuspended to an optical density (OD600) of 0.15 in 2% galactose/1% raffinose. β-galactosidase assays were performed 12 hours later as described previously (Garabedian et al., 1992).
Out of approximately one million library transformants, eight clones were isolated that interact with the androgen receptor N-terminus. There protein factors were termed ARTs, for Androgen Receptor Trapped, by the present inventors. The eight ART clones were sequenced and were subjected to a database search using the BLAST program. A quantitative liquid beta-galactosidase assay was used to measure the relative strength of interaction between the androgen receptor N-terminus and the ARTs using the yeast two-hybrid system. The levels of expression of the ARTs in yeast were similar, as determined by immunoblotting using an antibody to the LexA DNA-binding domain that is common to all of the ARTs.
ARTs expressed as fusion proteins with the LexA DNA binding domain were analyzed for their ability to interact with AR18-500. The relative strength of interaction was determined by a quantitative liquid beta-galactosidase assay after a twelve hour incubation in galactose-containing media at 30EC. The LexA vector alone gives 1 unit of activity.

[2] = biological target: T2, androgen receptor (AR) N-terminus (18-500); experiment: Modified yeast two-hybrid, qualitative plate beta-galactosidase assay; assay type: binding; conditions: AR N-terminus, AR LBD, Sp1A, Sp1B, CREB, TAFII130, GR AF1, SRC-1
From the text: as §1
To analyze the specificity of ART interaction, the capacity of the strongest androgen receptor N-terminus-interacting factors to associate with a panel of transcriptional regulatory proteins in the modified yeast two-hybrid assay was examined. ART-5, ART-27, and ART-37 were tested for interaction with Sp1A (Sp183-262), Sp1B (Sp1263-524) the cyclic AMP response element binding protein (CREB3-296), TBP-associated factor 130 (TAFII130270-700), the glucocorticoid receptor AF1 (GR107-237), and the steroid receptor coactivator-1 (SRC-1374-800).
The strength of interaction was determined by a qualitative plate beta-galactosidase assay after a 24 hour incubation on galactose X-gal plates at 301 C.
ART-27 derivatives containing amino acids 1-45, 1-67, 1-127, 46-157, 68-157, 127-157, 1-157, and 1-45/127-157 were expressed as fusion proteins with LexA. These derivatives were tested for their ability to interact with the androgen receptor N-terminus (AR18-500). The strength of interaction was determined by a qualitative plate beta-galactosidase assay after a 24 hour incubation on galactose X-gal plates at 301 C.

[3] = biological target: T3, androgen receptor ligand-binding domain (579-901); experiment: Modified yeast two-hybrid specificity panel; conditions: absence or presence of hormone

| relative strength of interaction with androgen receptor N-terminus [1] | specificity of interaction among panel of transcriptional regulatory factors [2] | interaction with androgen receptor ligand binding domain [3] | Molecule |
| --- | --- | --- | --- |
| Intermediate strength | – | – | ART-6: Androgen Receptor Trapped protein, SEQ ID NO:8, an EST (EFGTRLKPYVSYLAPESEETPLTAAQLFSKPLAPCHRKGLQG; Human) |
| Weak | – | – | ART-2: Androgen Receptor Trapped protein, SEQ ID NO:10, present in the EST database (EFGTRIHCPHNPRPTRRSTDHSISPSIDPHLQISHQQPTNHHPTMTNQTNLKTNDNHTQH; Human) |
| Weak | – | – | ART-9: corresponds to ZNF160, a zinc finger containing protein of unknown function |
| strongest | relatively promiscuous | No interaction | ART-37: Androgen Receptor Trapped protein, SEQ ID NO:6, unknown function, represented in EST database (protein, Human) EFGTRARFTRGKSALLERALARPRTEVSLSAFALLSPSWYSTARAVFSVAELQSRLAALGRQVGARVLDALVAREKGARRETKVLGALLFVKGAVWKALFGKEADKLEQANDDARTFYIIEREPLINTYISVPKENSTLNCASFTAGIVEAVLTHSGFPAKVTAHWHKGTTLMIKFEEAVIARDRLEGR |
